Measurements: US20040204348A1
Bridges are numbered along the chain shown (N, C = ends). L15 (R1 : phenyl) = linker L15: -CO-CH2-NH-CO-CH2-CH2-CH(CO-NH-CH2-CO-NH-R1)-NH- with R1 = phenyl (anilide)

Molecular target: recombinant soluble uPAR (suPAR), Q03405
Experiment: SPR (Biacore 3000), competition with scuPA
Conditions: remark: other sources report otherwise

Sequence of recombinant soluble uPAR (suPAR), Q03405 (Q03405 23-299 limits assumed): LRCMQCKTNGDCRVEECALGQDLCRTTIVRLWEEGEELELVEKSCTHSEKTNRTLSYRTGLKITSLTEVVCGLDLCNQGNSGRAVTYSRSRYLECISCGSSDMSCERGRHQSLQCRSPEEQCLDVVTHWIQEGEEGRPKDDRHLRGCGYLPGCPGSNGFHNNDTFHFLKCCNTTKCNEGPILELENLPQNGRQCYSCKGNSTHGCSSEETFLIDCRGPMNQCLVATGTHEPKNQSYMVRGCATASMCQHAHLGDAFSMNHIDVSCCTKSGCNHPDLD

Kd: 4 nM
B1: Å36 (peptide)
peptide: VSNKYFSNIHW
modifications: linker N-C via L15 (R1 : phenyl); also: cyclised by linker L15 between X1 N and X11 carbonyl
